Experimental data from paper PMC8291048.

Molecular target: PKM2, endogenous in T24 cells (human (endogenous in T24)) (UniProt P14618)
Test: cross-linking; T24 cells (LV-DPYSL2, siDPYSL2 or negative control) lysed in 0.5% Triton X-100 sodium phosphate buffer pH 7.3; supernatant treated with 1% formaldehyde for 30 min; Western blot for PKM2 monomer, dimer and tetramer

stoichiometry N: 2
Substance: PKM2, endogenous in T24 cells (from UniProt P14618 1-531) (enzyme; other documents disagree on this pair)
